Key:
[1] = molecular target: T1, PAH (phenylalanine hydroxylase), wild type (Homo sapiens, UniProt P00439 P00439:1-452); test: mutant mimic abolished interaction; settings: tags: His-tag, pET-DEST42, E. coli BL21-CodonPlus (DE3)-RIPL, cobalt resin
T1 sequence: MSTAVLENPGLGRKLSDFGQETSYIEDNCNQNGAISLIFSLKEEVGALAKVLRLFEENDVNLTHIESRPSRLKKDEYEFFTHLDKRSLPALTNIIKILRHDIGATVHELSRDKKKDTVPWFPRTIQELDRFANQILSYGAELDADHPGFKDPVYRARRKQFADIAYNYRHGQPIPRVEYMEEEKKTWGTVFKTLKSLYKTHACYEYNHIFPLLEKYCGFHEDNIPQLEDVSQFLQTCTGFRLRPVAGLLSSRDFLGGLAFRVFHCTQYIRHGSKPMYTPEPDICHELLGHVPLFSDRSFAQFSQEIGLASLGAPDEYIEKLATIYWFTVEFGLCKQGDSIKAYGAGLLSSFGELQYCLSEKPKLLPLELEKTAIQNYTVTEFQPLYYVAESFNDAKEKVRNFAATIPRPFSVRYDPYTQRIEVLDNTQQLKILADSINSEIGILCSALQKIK

[2] = molecular target: T1, PAH (phenylalanine hydroxylase), wild …; test: EMSA; 5 mM MgCl2, 100 mM KCl, 30 C; settings: tags: His-tag, pET-DEST42, E. coli BL21-CodonPlus (DE3)-RIPL, cobalt resin, label: 32P
Description: RNA Electrophoretic Mobility Shift Assay (EMSA). The gel mobility shift assay was performed as previously described (42). Briefly, 500 ng recombinant His-tagged wild-type PAH or mutants were incubated with 0.035 μmol labeled probe in a RNA-protein binding buffer [(50 mM Tris-HCl 7.9, 10% glycerol, 100 mM KCl, 5 mM MgCl₂, 10 mM (3-ME, 0.1% NP40] for 30 min at 30° C. For cold RNA competition, 0.035 μmol radiolabeled RNA probes were first mixed with 7 μmol cold RNA competitors and then subjected to the gel shift assay.

[3] = molecular target: T1, PAH (phenylalanine hydroxylase), wild …; test: affinity similar to full-length HULC; settings: tags: His-tag, pET-DEST42, E. coli BL21-CodonPlus (DE3)-RIPL, cobalt resin

B1: HULC mutant mimic, 2'-F (A191G) (XNA)
DNA: CAAAATGCATGTGTATCTTTG
modifications: 2'-F at all nucleotides
binding result [1]: no binding

B2: HULC 180-202 mutant EMSA probe (ssRNA)
RNA: CCAAAAUGCAUGUGUAUCUUUGG
binding result [2]: no binding

B3: HULC mimic, 2'-F (XNA)
DNA: CAAAATGCATATGTATCTTTG
modifications: 2'-F at all nucleotides
binding result [3]: binds

B4: Pair 467-488 mutant EMSA probe (ssRNA)
RNA: GGUGAGCUGCGUGUAGCUCGUC
binding result [2]: no binding

B5: HULC 180-202 WT EMSA probe (ssRNA)
RNA: CCAAAAUGCAUAUGUAUCUUUGG
binding result ([2]; stem-loop): binds

B6: Pair 467-488 WT EMSA probe (ssRNA)
RNA: GGUGAGCUGCGUAUAGCUCGUC
binding result ([2]; stem-loop): binds

From patent US20240342207, “MODIFIED NUCLEIC ACID COMPOSITIONS AND ASSOCIATED METHODS FOR TREATMENT OF PHENYLKETONURIA” (BOARD OF REGENTS, THE UNIVERSITY OF TEXAS SYSTEM, published 2024)
